Assay results: patent publication US20090053243A1 (INSTITUTE FOR ANTIBODIES, published 2009)

Target: T1, IgSF4 (Immunoglobulin superfamily member 4), human, as expressed by human cell lines (human, UniProt Q9BY67 45-442)
T1 construct: also called BL2; ST17
T1 sequence: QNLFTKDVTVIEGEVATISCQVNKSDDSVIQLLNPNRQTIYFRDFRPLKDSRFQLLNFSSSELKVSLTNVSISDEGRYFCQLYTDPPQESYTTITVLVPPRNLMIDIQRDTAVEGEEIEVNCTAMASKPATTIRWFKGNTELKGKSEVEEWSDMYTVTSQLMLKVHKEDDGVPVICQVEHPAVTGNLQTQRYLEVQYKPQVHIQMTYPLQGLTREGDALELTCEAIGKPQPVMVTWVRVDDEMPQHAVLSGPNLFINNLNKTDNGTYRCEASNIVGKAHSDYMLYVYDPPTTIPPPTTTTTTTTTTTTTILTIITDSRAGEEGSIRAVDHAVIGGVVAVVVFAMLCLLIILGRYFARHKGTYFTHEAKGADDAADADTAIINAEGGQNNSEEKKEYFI
Experiment: statement in the ADCC experiment on VMRC-LCD target cells
Procedure: As target cells to be used, lung cancer derived cultured cells VMRC-LCD (provided from Japanese Collection of Research Bioresources) was grown in a liquid culture medium 1 (Minimum Essential Medium Alpha Medium: Invitrogen, 10% (v/v) fetal bovine serum: Equitic-Bio, 1% (v/v) Penicillin-Streptomycin Solution: Sigma-Aldrich) on a culture dish having a diameter of 150 mm. The liquid culture medium was removed, cells were washed with 10 ml of PBS twice, and liquid was removed. To this, 5 ml of 4% (w/v) collagenase Type IV (Invitrogen) was added and maintained at 37° C. for 10 minutes, thereby peeling the cells off from the culture dish.
Into a U-bottom 96-well multiplate (Becton Dickinson), 66 μl/well of target cells (2×10⁴ cells) were placed. To this, 66 μl of IgG antibody (3 μg/ml) was added, and then 66 μl of peripheral blood mononuclear leukocyte suspension (7.5×10⁵ cells) was added. The E/T ratio (ratio of the effector cells and target cells) was made to be 20. In order to prompt to associate cells, centrifugation (60×g, 4° C., 5 minutes) was carried out so as to precipitate cells in the bottom. Then, the cells were incubated for 240 minutes in a culture device under conditions of 37° C. and 5% CO₂, and thus the ADCC reaction was induced. Each antibody sample was prepared as a CTM solution. […] Furthermore, in each experiment group, three wells were used.

binding result: binds
B1: IgG type antibody 035-029 (antibody, V domains shown)
VH: EVQLVESGGGLVKPGGSLRLSCAASGFTFSSYAMSWVRQAPGKGLEWVSAISGSGGSTYYADSVKGRFTISRDNSKNTLYLQMNSLRAEDTALYYCARDNWYFDLWGRGTLVTVSS
VL: SSELTQDPAVSVALGQTVRITCQGDSLRSYYASWYQQKPGQAPVLVIYGKNNRLSGIPDRFSGSSSGNTASLTITGAQAEDEADYYCNSRDSSGNHVVFGGGTKLTVLG
notes: also called IgG antibody clone 035-029; human IgG type antibody clone recognizing IgSF4
